According to the supplement of paper PMC11908140:

B1: library; numbered along this chain (parent)
chain: MRKPRAAVGSGHRKQAASQEGRQKHAKNNSQAKPSACDGLARQPEEVVLQASVSSYHLFRDVAEVTAFRGSLLSWYDQEKRDLPWRRRAEDEMDLDRRAYAVWVSEVMLQQTQVATVINYYTGWMQKWPTLQDLASASLEEVNQLWAGLGYYSRGRRLQEGARKVVEELGGHMPRTAETLQQLLPGVGRYTAGAIASIAFGQATGVVDGNVARVLCRVRAIGADPSSTLVSQQLWGLAQQLVDPARPGDFNQAAMELGATVCTPQRPLCSQCPVESLCRARQRVEQEQLLASGSLSGSPDVEECAPNTGQCHLCLPPSEPWDQTLGVVNFPRKASRKPPREESSATCVLEQPGALGAQILLVQRPNSGLLAGLWEFPSVTWEPSEQLQRKALLQELQRWAGPLPATHLRHLGEVVHTFSHIKLTYQVYGLALEGQTPVTTVPPGARWLTQEEFHTAAVSTAMKKVFRVYQGQQPGTCMGSKRSQVSSPCSRKKPRMGQQVLDNFFRSHISTDAHSLNSAAQ

Variants of: B1
Assay: 8OG:A repair function score (normalized; synonymous = 0, nonsense = -1) (normalized log-likelihood score); higher = more repair activity (WT-like)
Conditions: with 8OG:A DNA repair reporter (GFP) in HEK-293 MUTYH KO cells
Outline: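 GFP+ (repair) and GFP− bins of viable mCherry+ cells were collected at 72 h from MUTYH knockout HEK-293 cells bearing lentiviral MUTYH cDNA NNN codon-scan libraries in 10 pg/ml doxycycline, co-transfected with an 8OG:A GFP repair reporter and mCherry. Tile amplicons were sequenced, and per-tile Rosace fitness scores were normalized to a repair function score anchored on synonymous and nonsense distributions. Synonymous medians were set to 0 and nonsense to -1, with variants under 300 counts per million at the start removed.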
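Note: cells sorted at 72 h after reporter transfection.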

Variant | 8OG:A repair function score
MRKPRAAVGSGHRKQAASQEGRQKHAKNNSQAKPSACDGLARQPEEVVLQASVSSYHLFRDVAEVTAFRGSLLSWYDQEKRDLPWRRRAEDEMDLDRRAYAVWVSEVMLQQTQVATVINYYTGWMQKWPTLQDLASASLEEVNQLWAGLGYYSRGRRLQEGARKVVEELGGHMPRTAETLQQLLPGVGRYTAGAIASIAFGQATGVVDGNVARVLCRVRAIGADPSSTLVSQQLWGLAQQLVDPARPGDFNQAAMELGATVCTPQRPLCSQCPVESLCRARQRVEQEQLLASGSLSGSPDVEECAPNTGQCHLCLPPSEPWDQTLGVVNFPRKRSRKPPREESSATCVLEQPGALGAQILLVQRPNSGLLAGLWEFPSVTWEPSEQLQRKALLQELQRWAGPLPATHLRHLGEVVHTFSHIKLTYQVYGLALEGQTPVTTVPPGARWLTQEEFHTAAVSTAMKKVFRVYQGQQPGTCMGSKRSQVSSPCSRKKPRMGQQVLDNFFRSHISTDAHSLNSAAQ [A334R] | 0.0363
MRKPRAAVGSGHRKQAASQEGRQKHAKNNSQAKPSACDGLARQPEEVVLQASVSSYHLFRDVAEVTAFRGSLLSWYDQEKRDLPWRRRAEDEMDLDRRAYAVWVSEVMLQQTQVATVINYYTGWMQKWPTLQDLASASLEEVNQLWAGLGYYSRGRRLQEGARKVVEELGGHMPRTAETLQQLLPGVGRYTAGAIASIAFGQATGVVDGNVARVLCRVRAIGADPSSTLVSQQLWGLAQQLVDPARPGDFNQAAMELGATVCTPQRPLCSQCPVESLCRARQRVEQEQLLASGSLSGSPDVEECAPNTGQCHLCLPPSEPWDQTLGVVNFPRKNSRKPPREESSATCVLEQPGALGAQILLVQRPNSGLLAGLWEFPSVTWEPSEQLQRKALLQELQRWAGPLPATHLRHLGEVVHTFSHIKLTYQVYGLALEGQTPVTTVPPGARWLTQEEFHTAAVSTAMKKVFRVYQGQQPGTCMGSKRSQVSSPCSRKKPRMGQQVLDNFFRSHISTDAHSLNSAAQ [A334N] | 0.0217
MRKPRAAVGSGHRKQAASQEGRQKHAKNNSQAKPSACDGLARQPEEVVLQASVSSYHLFRDVAEVTAFRGSLLSWYDQEKRDLPWRRRAEDEMDLDRRAYAVWVSEVMLQQTQVATVINYYTGWMQKWPTLQDLASASLEEVNQLWAGLGYYSRGRRLQEGARKVVEELGGHMPRTAETLQQLLPGVGRYTAGAIASIAFGQATGVVDGNVARVLCRVRAIGADPSSTLVSQQLWGLAQQLVDPARPGDFNQAAMELGATVCTPQRPLCSQCPVESLCRARQRVEQEQLLASGSLSGSPDVEECAPNTGQCHLCLPPSEPWDQTLGVVNFPRKGSRKPPREESSATCVLEQPGALGAQILLVQRPNSGLLAGLWEFPSVTWEPSEQLQRKALLQELQRWAGPLPATHLRHLGEVVHTFSHIKLTYQVYGLALEGQTPVTTVPPGARWLTQEEFHTAAVSTAMKKVFRVYQGQQPGTCMGSKRSQVSSPCSRKKPRMGQQVLDNFFRSHISTDAHSLNSAAQ [A334G] | -0.0343
MRKPRAAVGSGHRKQAASQEGRQKHAKNNSQAKPSACDGLARQPEEVVLQASVSSYHLFRDVAEVTAFRGSLLSWYDQEKRDLPWRRRAEDEMDLDRRAYAVWVSEVMLQQTQVATVINYYTGWMQKWPTLQDLASASLEEVNQLWAGLGYYSRGRRLQEGARKVVEELGGHMPRTAETLQQLLPGVGRYTAGAIASIAFGQATGVVDGNVARVLCRVRAIGADPSSTLVSQQLWGLAQQLVDPARPGDFNQAAMELGATVCTPQRPLCSQCPVESLCRARQRVEQEQLLASGSLSGSPDVEECAPNTGQCHLCLPPSEPWDQTLGVVNFPRKHSRKPPREESSATCVLEQPGALGAQILLVQRPNSGLLAGLWEFPSVTWEPSEQLQRKALLQELQRWAGPLPATHLRHLGEVVHTFSHIKLTYQVYGLALEGQTPVTTVPPGARWLTQEEFHTAAVSTAMKKVFRVYQGQQPGTCMGSKRSQVSSPCSRKKPRMGQQVLDNFFRSHISTDAHSLNSAAQ [A334H] | 0.0495
MRKPRAAVGSGHRKQAASQEGRQKHAKNNSQAKPSACDGLARQPEEVVLQASVSSYHLFRDVAEVTAFRGSLLSWYDQEKRDLPWRRRAEDEMDLDRRAYAVWVSEVMLQQTQVATVINYYTGWMQKWPTLQDLASASLEEVNQLWAGLGYYSRGRRLQEGARKVVEELGGHMPRTAETLQQLLPGVGRYTAGAIASIAFGQATGVVDGNVARVLCRVRAIGADPSSTLVSQQLWGLAQQLVDPARPGDFNQAAMELGATVCTPQRPLCSQCPVESLCRARQRVEQEQLLASGSLSGSPDVEECAPNTGQCHLCLPPSEPWDQTLGVVNFPRKFSRKPPREESSATCVLEQPGALGAQILLVQRPNSGLLAGLWEFPSVTWEPSEQLQRKALLQELQRWAGPLPATHLRHLGEVVHTFSHIKLTYQVYGLALEGQTPVTTVPPGARWLTQEEFHTAAVSTAMKKVFRVYQGQQPGTCMGSKRSQVSSPCSRKKPRMGQQVLDNFFRSHISTDAHSLNSAAQ [A334F] | -0.0391
MRKPRAAVGSGHRKQAASQEGRQKHAKNNSQAKPSACDGLARQPEEVVLQASVSSYHLFRDVAEVTAFRGSLLSWYDQEKRDLPWRRRAEDEMDLDRRAYAVWVSEVMLQQTQVATVINYYTGWMQKWPTLQDLASASLEEVNQLWAGLGYYSRGRRLQEGARKVVEELGGHMPRTAETLQQLLPGVGRYTAGAIASIAFGQATGVVDGNVARVLCRVRAIGADPSSTLVSQQLWGLAQQLVDPARPGDFNQAAMELGATVCTPQRPLCSQCPVESLCRARQRVEQEQLLASGSLSGSPDVEECAPNTGQCHLCLPPSEPWDQTLGVVNFPRKLSRKPPREESSATCVLEQPGALGAQILLVQRPNSGLLAGLWEFPSVTWEPSEQLQRKALLQELQRWAGPLPATHLRHLGEVVHTFSHIKLTYQVYGLALEGQTPVTTVPPGARWLTQEEFHTAAVSTAMKKVFRVYQGQQPGTCMGSKRSQVSSPCSRKKPRMGQQVLDNFFRSHISTDAHSLNSAAQ [A334L] | -0.0917
MRKPRAAVGSGHRKQAASQEGRQKHAKNNSQAKPSACDGLARQPEEVVLQASVSSYHLFRDVAEVTAFRGSLLSWYDQEKRDLPWRRRAEDEMDLDRRAYAVWVSEVMLQQTQVATVINYYTGWMQKWPTLQDLASASLEEVNQLWAGLGYYSRGRRLQEGARKVVEELGGHMPRTAETLQQLLPGVGRYTAGAIASIAFGQATGVVDGNVARVLCRVRAIGADPSSTLVSQQLWGLAQQLVDPARPGDFNQAAMELGATVCTPQRPLCSQCPVESLCRARQRVEQEQLLASGSLSGSPDVEECAPNTGQCHLCLPPSEPWDQTLGVVNFPRKPSRKPPREESSATCVLEQPGALGAQILLVQRPNSGLLAGLWEFPSVTWEPSEQLQRKALLQELQRWAGPLPATHLRHLGEVVHTFSHIKLTYQVYGLALEGQTPVTTVPPGARWLTQEEFHTAAVSTAMKKVFRVYQGQQPGTCMGSKRSQVSSPCSRKKPRMGQQVLDNFFRSHISTDAHSLNSAAQ [A334P] | -0.147
MRKPRAAVGSGHRKQAASQEGRQKHAKNNSQAKPSACDGLARQPEEVVLQASVSSYHLFRDVAEVTAFRGSLLSWYDQEKRDLPWRRRAEDEMDLDRRAYAVWVSEVMLQQTQVATVINYYTGWMQKWPTLQDLASASLEEVNQLWAGLGYYSRGRRLQEGARKVVEELGGHMPRTAETLQQLLPGVGRYTAGAIASIAFGQATGVVDGNVARVLCRVRAIGADPSSTLVSQQLWGLAQQLVDPARPGDFNQAAMELGATVCTPQRPLCSQCPVESLCRARQRVEQEQLLASGSLSGSPDVEECAPNTGQCHLCLPPSEPWDQTLGVVNFPRKDSRKPPREESSATCVLEQPGALGAQILLVQRPNSGLLAGLWEFPSVTWEPSEQLQRKALLQELQRWAGPLPATHLRHLGEVVHTFSHIKLTYQVYGLALEGQTPVTTVPPGARWLTQEEFHTAAVSTAMKKVFRVYQGQQPGTCMGSKRSQVSSPCSRKKPRMGQQVLDNFFRSHISTDAHSLNSAAQ [A334D] | -0.242
MRKPRAAVGSGHRKQAASQEGRQKHAKNNSQAKPSACDGLARQPEEVVLQASVSSYHLFRDVAEVTAFRGSLLSWYDQEKRDLPWRRRAEDEMDLDRRAYAVWVSEVMLQQTQVATVINYYTGWMQKWPTLQDLASASLEEVNQLWAGLGYYSRGRRLQEGARKVVEELGGHMPRTAETLQQLLPGVGRYTAGAIASIAFGQATGVVDGNVARVLCRVRAIGADPSSTLVSQQLWGLAQQLVDPARPGDFNQAAMELGATVCTPQRPLCSQCPVESLCRARQRVEQEQLLASGSLSGSPDVEECAPNTGQCHLCLPPSEPWDQTLGVVNFPRKISRKPPREESSATCVLEQPGALGAQILLVQRPNSGLLAGLWEFPSVTWEPSEQLQRKALLQELQRWAGPLPATHLRHLGEVVHTFSHIKLTYQVYGLALEGQTPVTTVPPGARWLTQEEFHTAAVSTAMKKVFRVYQGQQPGTCMGSKRSQVSSPCSRKKPRMGQQVLDNFFRSHISTDAHSLNSAAQ [A334I] | -0.198
MRKPRAAVGSGHRKQAASQEGRQKHAKNNSQAKPSACDGLARQPEEVVLQASVSSYHLFRDVAEVTAFRGSLLSWYDQEKRDLPWRRRAEDEMDLDRRAYAVWVSEVMLQQTQVATVINYYTGWMQKWPTLQDLASASLEEVNQLWAGLGYYSRGRRLQEGARKVVEELGGHMPRTAETLQQLLPGVGRYTAGAIASIAFGQATGVVDGNVARVLCRVRAIGADPSSTLVSQQLWGLAQQLVDPARPGDFNQAAMELGATVCTPQRPLCSQCPVESLCRARQRVEQEQLLASGSLSGSPDVEECAPNTGQCHLCLPPSEPWDQTLGVVNFPRKQSRKPPREESSATCVLEQPGALGAQILLVQRPNSGLLAGLWEFPSVTWEPSEQLQRKALLQELQRWAGPLPATHLRHLGEVVHTFSHIKLTYQVYGLALEGQTPVTTVPPGARWLTQEEFHTAAVSTAMKKVFRVYQGQQPGTCMGSKRSQVSSPCSRKKPRMGQQVLDNFFRSHISTDAHSLNSAAQ [A334Q] | -0.103
MRKPRAAVGSGHRKQAASQEGRQKHAKNNSQAKPSACDGLARQPEEVVLQASVSSYHLFRDVAEVTAFRGSLLSWYDQEKRDLPWRRRAEDEMDLDRRAYAVWVSEVMLQQTQVATVINYYTGWMQKWPTLQDLASASLEEVNQLWAGLGYYSRGRRLQEGARKVVEELGGHMPRTAETLQQLLPGVGRYTAGAIASIAFGQATGVVDGNVARVLCRVRAIGADPSSTLVSQQLWGLAQQLVDPARPGDFNQAAMELGATVCTPQRPLCSQCPVESLCRARQRVEQEQLLASGSLSGSPDVEECAPNTGQCHLCLPPSEPWDQTLGVVNFPRKESRKPPREESSATCVLEQPGALGAQILLVQRPNSGLLAGLWEFPSVTWEPSEQLQRKALLQELQRWAGPLPATHLRHLGEVVHTFSHIKLTYQVYGLALEGQTPVTTVPPGARWLTQEEFHTAAVSTAMKKVFRVYQGQQPGTCMGSKRSQVSSPCSRKKPRMGQQVLDNFFRSHISTDAHSLNSAAQ [A334E] | -0.0264
MRKPRAAVGSGHRKQAASQEGRQKHAKNNSQAKPSACDGLARQPEEVVLQASVSSYHLFRDVAEVTAFRGSLLSWYDQEKRDLPWRRRAEDEMDLDRRAYAVWVSEVMLQQTQVATVINYYTGWMQKWPTLQDLASASLEEVNQLWAGLGYYSRGRRLQEGARKVVEELGGHMPRTAETLQQLLPGVGRYTAGAIASIAFGQATGVVDGNVARVLCRVRAIGADPSSTLVSQQLWGLAQQLVDPARPGDFNQAAMELGATVCTPQRPLCSQCPVESLCRARQRVEQEQLLASGSLSGSPDVEECAPNTGQCHLCLPPSEPWDQTLGVVNFPRKKSRKPPREESSATCVLEQPGALGAQILLVQRPNSGLLAGLWEFPSVTWEPSEQLQRKALLQELQRWAGPLPATHLRHLGEVVHTFSHIKLTYQVYGLALEGQTPVTTVPPGARWLTQEEFHTAAVSTAMKKVFRVYQGQQPGTCMGSKRSQVSSPCSRKKPRMGQQVLDNFFRSHISTDAHSLNSAAQ [A334K] | 0.00736
